The supplement of paper PMC6757056
± gives the standard deviation of the averaged measurements.

B1: library; a variant is named by its letters at N, in order (parent)
chain: GCUGUCACCGGUGCUUGGUACGUUAUAUUCAGCCGGUCUGAUGAGUCUNNNNNNAGACGAAACAGC

Tests used:
(6R,S)-folinic acid [1] = variants of: B1; test: normalized RNA/DNA level without ligand (relative to sTRSVctl = 100) (log10 (% of sTRSVctl)); HEK293T overexpressing SLC46A1; higher = less ribozyme self-cleavage, higher mRNA level; settings: without (6R,S)-folinic acid; ligand present: no
Outline: (§1)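 Library plasmids encoding reporter-linked ribozyme switches (mCherry, or eGFP for some folinic acid experiments) were transfected into HEK293T at 4 µg per 6-well well. Ligand, when used, was added 1 h before transfection. Total RNA was extracted with EDTA 72 h later, then reverse-transcribed, amplified, barcoded and sequenced. RNA level was RNA reads over DNA reads, divided by a spiked-in non-cleaving control (or the top 25 sequences), ×100, log10; only sequences with ≥100 DNA reads were kept.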

(6R,S)-folinic acid [2] = variants of: B1; test: normalized RNA/DNA level with ligand (relative to sTRSVctl = 100) (log10 (% of sTRSVctl)); HEK293T overexpressing SLC46A1; ligand concentration (+) RNA-Seq: 6 mM; higher = less ribozyme self-cleavage, higher mRNA level; settings: with (6R,S)-folinic acid; ligand present: yes
Outline: as §1

Variant	normalized RNA/DNA level without ligand (log10) ((6R,S)-folinic acid [1])	normalized RNA/DNA level with ligand (log10) ((6R,S)-folinic acid [2])
GCUGUCACCGGUGCUUGGUACGUUAUAUUCAGCCGGUCUGAUGAGUCUCGCGGCAGACGAAACAGC [CGCGGC]	2.11 ± 0.023	2.13 ± 0.047
GCUGUCACCGGUGCUUGGUACGUUAUAUUCAGCCGGUCUGAUGAGUCUCGCGGAAGACGAAACAGC [CGCGGA]	2.052 ± 0.0026	2.05 ± 0.03
GCUGUCACCGGUGCUUGGUACGUUAUAUUCAGCCGGUCUGAUGAGUCUAGCGACAGACGAAACAGC [AGCGAC]	1.99 ± 0.011	2.0338 ± 0.00013
GCUGUCACCGGUGCUUGGUACGUUAUAUUCAGCCGGUCUGAUGAGUCUAGCGAAAGACGAAACAGC [AGCGAA]	1.96 ± 0.014	2.01 ± 0.03
GCUGUCACCGGUGCUUGGUACGUUAUAUUCAGCCGGUCUGAUGAGUCUAGCGAUAGACGAAACAGC [AGCGAU]	1.982 ± 0.0033	2 ± 0.028
GCUGUCACCGGUGCUUGGUACGUUAUAUUCAGCCGGUCUGAUGAGUCUAGCGAGAGACGAAACAGC [AGCGAG]	1.886 ± 0.014	1.998 ± 0.012
GCUGUCACCGGUGCUUGGUACGUUAUAUUCAGCCGGUCUGAUGAGUCUGGCCUUAGACGAAACAGC [GGCCUU]	2.108 ± 0.0078	2.09 ± 0.042
GCUGUCACCGGUGCUUGGUACGUUAUAUUCAGCCGGUCUGAUGAGUCUGGCCUCAGACGAAACAGC [GGCCUC]	2.044 ± 0.018	2.06 ± 0.025
GCUGUCACCGGUGCUUGGUACGUUAUAUUCAGCCGGUCUGAUGAGUCUGGCCUGAGACGAAACAGC [GGCCUG]	2.064 ± 0.015	2.03 ± 0.085
GCUGUCACCGGUGCUUGGUACGUUAUAUUCAGCCGGUCUGAUGAGUCUCGCCUGAGACGAAACAGC [CGCCUG]	2.057 ± 0.011	2.056 ± 0.002
GCUGUCACCGGUGCUUGGUACGUUAUAUUCAGCCGGUCUGAUGAGUCUCGCCUUAGACGAAACAGC [CGCCUU]	2.0227 ± 0.00028	2.007 ± 0.018
GCUGUCACCGGUGCUUGGUACGUUAUAUUCAGCCGGUCUGAUGAGUCUCGCCUCAGACGAAACAGC [CGCCUC]	2.039 ± 0.0057	1.992 ± 0.015
GCUGUCACCGGUGCUUGGUACGUUAUAUUCAGCCGGUCUGAUGAGUCUGGCGGAAGACGAAACAGC [GGCGGA]	2.064 ± 0.0089	2.021 ± 0.016
GCUGUCACCGGUGCUUGGUACGUUAUAUUCAGCCGGUCUGAUGAGUCUGGCGAGAGACGAAACAGC [GGCGAG]	2.05 ± 0.017	2.018 ± 0.018
GCUGUCACCGGUGCUUGGUACGUUAUAUUCAGCCGGUCUGAUGAGUCUGGCGAAAGACGAAACAGC [GGCGAA]	2.051 ± 0.0044	2.04 ± 0.021
GCUGUCACCGGUGCUUGGUACGUUAUAUUCAGCCGGUCUGAUGAGUCUCGCGAAAGACGAAACAGC [CGCGAA]	1.9769 ± 0.0003	2.01 ± 0.031
GCUGUCACCGGUGCUUGGUACGUUAUAUUCAGCCGGUCUGAUGAGUCUCGCGACAGACGAAACAGC [CGCGAC]	2.0427 ± 0.0011	2.04 ± 0.029
GCUGUCACCGGUGCUUGGUACGUUAUAUUCAGCCGGUCUGAUGAGUCUCGCGAGAGACGAAACAGC [CGCGAG]	1.98 ± 0.039	2 ± 0.037
GCUGUCACCGGUGCUUGGUACGUUAUAUUCAGCCGGUCUGAUGAGUCUCGCGAUAGACGAAACAGC [CGCGAU]	1.939 ± 0.0057	1.97 ± 0.041
GCUGUCACCGGUGCUUGGUACGUUAUAUUCAGCCGGUCUGAUGAGUCUGGCGCCAGACGAAACAGC [GGCGCC]	2.093 ± 0.017	2.07 ± 0.023
GCUGUCACCGGUGCUUGGUACGUUAUAUUCAGCCGGUCUGAUGAGUCUGGCGCUAGACGAAACAGC [GGCGCU]	2.113 ± 0.014	2.1 ± 0.057

Variant	normalized RNA/DNA level without ligand (log10) ((6R,S)-folinic acid [1])	normalized RNA/DNA level with ligand (log10) ((6R,S)-folinic acid [2])
GCUGUCACCGGUGCUUGGUACGUUAUAUUCAGCCGGUCUGAUGAGUCUGGCGCGAGACGAAACAGC [GGCGCG]	2.085 ± 0.011	2.06 ± 0.05
GCUGUCACCGGUGCUUGGUACGUUAUAUUCAGCCGGUCUGAUGAGUCUGGCGCAAGACGAAACAGC [GGCGCA]	2.06 ± 0.0043	2.051 ± 0.019
GCUGUCACCGGUGCUUGGUACGUUAUAUUCAGCCGGUCUGAUGAGUCUAGCCUUAGACGAAACAGC [AGCCUU]	2.0374 ± 0.0006	2.02 ± 0.037
GCUGUCACCGGUGCUUGGUACGUUAUAUUCAGCCGGUCUGAUGAGUCUAGCCUCAGACGAAACAGC [AGCCUC]	2.049 ± 0.012	2.03 ± 0.029
GCUGUCACCGGUGCUUGGUACGUUAUAUUCAGCCGGUCUGAUGAGUCUAGCGGAAGACGAAACAGC [AGCGGA]	2.024 ± 0.0064	2.024 ± 0.01
GCUGUCACCGGUGCUUGGUACGUUAUAUUCAGCCGGUCUGAUGAGUCUUGCGCCAGACGAAACAGC [UGCGCC]	2.07 ± 0.015	2.043 ± 0.0087
GCUGUCACCGGUGCUUGGUACGUUAUAUUCAGCCGGUCUGAUGAGUCUUGCGCAAGACGAAACAGC [UGCGCA]	1.951 ± 0.002	1.98 ± 0.033
GCUGUCACCGGUGCUUGGUACGUUAUAUUCAGCCGGUCUGAUGAGUCUUGCGCGAGACGAAACAGC [UGCGCG]	1.81 ± 0.046	1.99 ± 0.056
GCUGUCACCGGUGCUUGGUACGUUAUAUUCAGCCGGUCUGAUGAGUCUUGCGAAAGACGAAACAGC [UGCGAA]	1.966 ± 0.011	1.97 ± 0.029
GCUGUCACCGGUGCUUGGUACGUUAUAUUCAGCCGGUCUGAUGAGUCUUGCGGAAGACGAAACAGC [UGCGGA]	1.886 ± 0.0066	2.01 ± 0.04
GCUGUCACCGGUGCUUGGUACGUUAUAUUCAGCCGGUCUGAUGAGUCUCGCGCCAGACGAAACAGC [CGCGCC]	2.096 ± 0.0053	2.0477 ± 0.00068
GCUGUCACCGGUGCUUGGUACGUUAUAUUCAGCCGGUCUGAUGAGUCUCGCGCGAGACGAAACAGC [CGCGCG]	1.995 ± 0.016	1.95 ± 0.1
GCUGUCACCGGUGCUUGGUACGUUAUAUUCAGCCGGUCUGAUGAGUCUCGCGCUAGACGAAACAGC [CGCGCU]	2.08 ± 0.043	2.05 ± 0.047
GCUGUCACCGGUGCUUGGUACGUUAUAUUCAGCCGGUCUGAUGAGUCUCGCGCAAGACGAAACAGC [CGCGCA]	2.036 ± 0.014	2.04 ± 0.026
GCUGUCACCGGUGCUUGGUACGUUAUAUUCAGCCGGUCUGAUGAGUCUUGCCUAAGACGAAACAGC [UGCCUA]	2.03 ± 0.023	2.03 ± 0.023
GCUGUCACCGGUGCUUGGUACGUUAUAUUCAGCCGGUCUGAUGAGUCUUGCCUUAGACGAAACAGC [UGCCUU]	2.0129 ± 0.0012	2.011 ± 0.018
GCUGUCACCGGUGCUUGGUACGUUAUAUUCAGCCGGUCUGAUGAGUCUUGCCUCAGACGAAACAGC [UGCCUC]	2.065 ± 0.0067	2 ± 0.065
GCUGUCACCGGUGCUUGGUACGUUAUAUUCAGCCGGUCUGAUGAGUCUAGCGCUAGACGAAACAGC [AGCGCU]	2.027 ± 0.0049	2.01 ± 0.026
GCUGUCACCGGUGCUUGGUACGUUAUAUUCAGCCGGUCUGAUGAGUCUAGCGCGAGACGAAACAGC [AGCGCG]	1.972 ± 0.019	2 ± 0.037
GCUGUCACCGGUGCUUGGUACGUUAUAUUCAGCCGGUCUGAUGAGUCUAGCGCCAGACGAAACAGC [AGCGCC]	2.058 ± 0.017	2.03 ± 0.037
